The test has as its target Fas receptor (human) (UniProt P25445). The experiment in a line: cell-based or functional assay.
Chain of UniProt P25445 (P25445 26-335): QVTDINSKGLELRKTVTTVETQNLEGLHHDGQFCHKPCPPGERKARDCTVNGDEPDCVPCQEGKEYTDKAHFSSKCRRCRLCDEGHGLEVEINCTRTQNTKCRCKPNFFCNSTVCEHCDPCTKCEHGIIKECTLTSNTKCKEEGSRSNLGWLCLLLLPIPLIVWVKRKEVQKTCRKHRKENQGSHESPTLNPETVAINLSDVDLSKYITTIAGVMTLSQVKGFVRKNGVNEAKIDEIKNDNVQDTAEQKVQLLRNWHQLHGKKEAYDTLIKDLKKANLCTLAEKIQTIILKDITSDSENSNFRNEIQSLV

On to CH11 (antibody), for which the IC50 (ng/ml), PESMTS survival assay, ARH-77 cells (multiple myeloma) was greater than 10000 ng/mL; the IC50 (ng/ml), PESMTS survival assay, DOHH2 cells (follicular lymphoma) was greater than 10000 ng/mL; the IC50 (ng/ml), PESMTS survival assay, HL60 (AML-M3) cells was greater than 10000 ng/mL; the IC50 (ng/ml), PESMTS survival assay, Jurkat cells (acute T lymphoblastic leukemia) is 6.58 ng/mL. The IC50 (ng/ml), PESMTS survival assay, K562 cells (chronic myeloid leukaemia) is greater than 10000 ng/mL; the IC50 (ng/ml), PESMTS survival assay, NB4 (AML-M3) cells is greater than 10000 ng/mL; the IC50 (ng/ml), PESMTS survival assay, Namalwa (ALL-L3) cells was greater than 10000 ng/mL; the IC50 (ng/ml), PESMTS survival assay, RPMI-8226 cells (multiple myeloma) was greater than 10000 ng/mL. Moreover, the IC50 (ng/ml), PESMTS survival assay, Raji (ALL-L3) cells worked out at 15.8 ng/mL; the IC50 (ng/ml), PESMTS survival assay, SC-I cells (follicular lymphoma) was greater than 10000 ng/mL; the IC50 (ng/ml), PESMTS survival assay, U266 cells (multiple myeloma) is greater than 10000 ng/mL.

The substance “MegaFasL (fusion polypeptide m or hACRP30:hFasL) (from UniProt P48023 103-281) (ligand)” registered an IC50 (ng/ml), PESMTS survival assay, ARH-77 cells (multiple myeloma) of 10.4 ng/mL; an IC50 (ng/ml), PESMTS survival assay, DOHH2 cells (follicular lymphoma) of 1.17 ng/mL; an IC50 (ng/ml), PESMTS survival assay, HL60 (AML-M3) cells of 213 ng/mL; an IC50 (ng/ml), PESMTS survival assay, Jurkat cells (acute T lymphoblastic leukemia) of 0.06 ng/mL. The substance also yielded an IC50 (ng/ml), PESMTS survival assay, K562 cells (chronic myeloid leukaemia) greater than 10000 ng/mL; an IC50 (ng/ml), PESMTS survival assay, NB4 (AML-M3) cells of 16 ng/mL; an IC50 (ng/ml), PESMTS survival assay, Namalwa (ALL-L3) cells of 57 ng/mL; an IC50 (ng/ml), PESMTS survival assay, OPM2 cells (multiple myeloma) of 2.19 ng/mL. In addition, the IC50 (ng/ml), PESMTS survival assay, RPMI-8226 cells (multiple myeloma) came to 3.57 ng/mL; the IC50 (ng/ml), PESMTS survival assay, Raji (ALL-L3) cells was 5.6 ng/mL; the IC50 (ng/ml), PESMTS survival assay, SC-I cells (follicular lymphoma) is greater than 10000 ng/mL; the IC50 (ng/ml), PESMTS survival assay, U266 cells (multiple myeloma) is 6.2 ng/mL.

The record behind these values is patent US20080241109A1.
